From patent US20190111149A1, “ANTI-EGFR ANTIBODY DRUG CONJUGATE” (priority 2016, published 2019) come the findings set out here.

Test [1] concerns the target MBI_CD19_1; (SAR3419). Kind of test: BLI Octet, antibody on anti-human Fc tip, peptide […]. A general note: In BLI a coated tip is dipped into the sample, and binding shifts an interference pattern.
The target of test [2] is MBI_CD19_2; (MOR208). The description is as above.
For test [3], the target named is Meditope enabled Clivatuzumab. The test is described as above.
Test [4] deals with Meditope enabled Ocaratuzumab. The description is as above.
The target of test [5] is Photo optimized trastuzumab; meditope enabled (Tmab). Described as above.
Test [6] addresses MBI_CD19_1; (SAR3419). The test is described as follows: BLI Octet, antibody on anti-human Fc tip, peptide 37 nM.
For test [7], the target named is MBI_CD19_2; (MOR208). The description is as above.
Test [8] concerns the target Meditope enabled Ocaratuzumab. The description is as above.
The target in test [9] is Photo optimized trastuzumab; meditope enabled (Tmab). The description is as above.
Test [10] concerns the target MBI_CD19_1; (SAR3419). Kind of test: BLI Octet, antibody on anti-human Fc tip, peptide 333 nM.
Test [11] addresses MBI_CD19_2; (MOR208). Described as above.
The target in test [12] is Meditope enabled Clivatuzumab. The description is as above.
For test [13], the target named is Photo optimized trastuzumab; meditope enabled (Tmab). The description is as above.

Usually Kd stands for the constant that tells how readily two partners part at equilibrium.

Photo optimized trastuzumab; meditope enabled (Tmab), sequence (chain, as listed by the source, chain 1 of 2): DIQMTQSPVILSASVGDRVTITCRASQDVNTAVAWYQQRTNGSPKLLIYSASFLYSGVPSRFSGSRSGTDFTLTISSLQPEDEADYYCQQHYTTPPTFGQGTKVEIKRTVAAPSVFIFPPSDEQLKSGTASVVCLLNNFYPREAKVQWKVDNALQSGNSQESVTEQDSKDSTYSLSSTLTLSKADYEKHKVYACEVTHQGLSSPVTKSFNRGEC
Photo optimized trastuzumab; meditope enabled (Tmab), sequence (chain, as listed by the source, chain 2 of 2): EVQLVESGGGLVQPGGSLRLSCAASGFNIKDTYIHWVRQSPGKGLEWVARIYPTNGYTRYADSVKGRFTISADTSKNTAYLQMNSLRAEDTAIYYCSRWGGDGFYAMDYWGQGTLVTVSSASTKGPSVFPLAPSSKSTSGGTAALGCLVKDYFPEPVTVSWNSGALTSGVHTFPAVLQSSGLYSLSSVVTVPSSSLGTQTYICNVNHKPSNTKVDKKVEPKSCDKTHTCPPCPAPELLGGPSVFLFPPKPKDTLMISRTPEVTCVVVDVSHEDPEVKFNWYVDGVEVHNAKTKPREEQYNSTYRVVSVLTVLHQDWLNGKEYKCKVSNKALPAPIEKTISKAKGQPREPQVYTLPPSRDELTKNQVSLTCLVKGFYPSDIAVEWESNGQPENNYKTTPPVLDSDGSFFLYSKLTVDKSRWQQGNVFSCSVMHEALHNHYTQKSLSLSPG
MBI_CD19_2; (MOR208), sequence (chain, as listed by the source, chain 1 of 2): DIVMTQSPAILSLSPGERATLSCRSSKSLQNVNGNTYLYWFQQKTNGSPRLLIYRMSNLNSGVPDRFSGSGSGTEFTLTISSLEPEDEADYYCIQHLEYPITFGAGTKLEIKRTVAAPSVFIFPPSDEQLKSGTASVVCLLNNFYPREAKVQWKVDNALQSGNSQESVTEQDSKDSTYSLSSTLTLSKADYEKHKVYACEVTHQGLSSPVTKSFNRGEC
MBI_CD19_2; (MOR208), sequence (chain, as listed by the source, chain 2 of 2): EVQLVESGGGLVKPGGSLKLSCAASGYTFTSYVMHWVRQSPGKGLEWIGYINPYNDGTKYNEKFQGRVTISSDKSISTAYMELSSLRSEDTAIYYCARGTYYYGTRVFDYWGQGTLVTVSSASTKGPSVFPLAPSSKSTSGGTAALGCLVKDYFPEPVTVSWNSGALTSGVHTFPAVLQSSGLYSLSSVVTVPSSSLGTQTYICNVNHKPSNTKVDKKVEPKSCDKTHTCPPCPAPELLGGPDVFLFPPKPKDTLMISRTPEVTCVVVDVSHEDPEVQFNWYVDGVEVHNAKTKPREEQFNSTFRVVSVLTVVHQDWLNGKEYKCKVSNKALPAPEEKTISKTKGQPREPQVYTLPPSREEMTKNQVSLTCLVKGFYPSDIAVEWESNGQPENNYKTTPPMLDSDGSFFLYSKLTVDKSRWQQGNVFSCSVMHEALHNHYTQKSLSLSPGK
MBI_CD19_1; (SAR3419), sequence (chain, as listed by the source, chain 1 of 2): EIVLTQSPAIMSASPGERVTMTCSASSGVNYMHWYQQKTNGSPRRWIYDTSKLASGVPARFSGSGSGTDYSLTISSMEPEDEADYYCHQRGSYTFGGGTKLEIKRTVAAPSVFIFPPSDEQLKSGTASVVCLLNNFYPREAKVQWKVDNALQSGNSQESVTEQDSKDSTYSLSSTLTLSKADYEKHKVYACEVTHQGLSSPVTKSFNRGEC
MBI_CD19_1; (SAR3419), sequence (chain, as listed by the source, chain 2 of 2): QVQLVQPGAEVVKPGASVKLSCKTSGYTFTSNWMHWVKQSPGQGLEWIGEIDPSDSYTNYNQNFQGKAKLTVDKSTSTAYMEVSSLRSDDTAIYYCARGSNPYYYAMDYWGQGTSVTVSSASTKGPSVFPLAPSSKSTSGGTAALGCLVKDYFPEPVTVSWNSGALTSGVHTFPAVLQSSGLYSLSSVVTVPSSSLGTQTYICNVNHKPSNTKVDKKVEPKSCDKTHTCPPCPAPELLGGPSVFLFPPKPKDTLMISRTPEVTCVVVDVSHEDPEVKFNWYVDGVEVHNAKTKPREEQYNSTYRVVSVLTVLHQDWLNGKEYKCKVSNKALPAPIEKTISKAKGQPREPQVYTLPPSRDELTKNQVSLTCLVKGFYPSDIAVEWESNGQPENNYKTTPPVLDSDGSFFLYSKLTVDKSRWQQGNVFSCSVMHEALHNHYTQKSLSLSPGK
Meditope enabled Clivatuzumab, sequence (chain, as listed by the source, chain 1 of 2): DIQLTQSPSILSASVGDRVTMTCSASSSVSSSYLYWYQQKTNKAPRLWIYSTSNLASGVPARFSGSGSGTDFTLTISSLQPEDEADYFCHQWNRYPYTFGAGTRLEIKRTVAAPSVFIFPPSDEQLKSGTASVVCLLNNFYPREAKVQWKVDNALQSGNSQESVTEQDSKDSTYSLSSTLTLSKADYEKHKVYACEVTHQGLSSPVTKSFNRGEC
Meditope enabled Clivatuzumab, sequence (chain, as listed by the source, chain 2 of 2): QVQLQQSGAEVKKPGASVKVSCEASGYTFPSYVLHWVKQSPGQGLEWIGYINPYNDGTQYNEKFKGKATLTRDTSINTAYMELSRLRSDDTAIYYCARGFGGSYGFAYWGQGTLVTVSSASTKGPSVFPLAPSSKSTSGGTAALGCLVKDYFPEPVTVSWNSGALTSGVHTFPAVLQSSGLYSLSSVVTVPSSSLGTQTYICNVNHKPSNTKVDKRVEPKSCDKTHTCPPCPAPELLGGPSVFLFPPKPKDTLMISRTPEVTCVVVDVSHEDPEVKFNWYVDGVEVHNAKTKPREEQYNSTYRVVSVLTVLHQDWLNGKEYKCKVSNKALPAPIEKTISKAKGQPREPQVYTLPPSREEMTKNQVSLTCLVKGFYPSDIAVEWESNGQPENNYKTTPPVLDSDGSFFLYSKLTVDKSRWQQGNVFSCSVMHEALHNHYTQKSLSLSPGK
Meditope enabled Ocaratuzumab, sequence (chain, as listed by the source, chain 1 of 2): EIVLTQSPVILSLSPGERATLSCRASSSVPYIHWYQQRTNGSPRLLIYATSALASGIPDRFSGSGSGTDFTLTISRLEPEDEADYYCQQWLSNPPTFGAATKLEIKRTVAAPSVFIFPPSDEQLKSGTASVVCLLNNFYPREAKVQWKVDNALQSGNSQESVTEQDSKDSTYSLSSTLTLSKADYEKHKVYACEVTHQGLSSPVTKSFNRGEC
Meditope enabled Ocaratuzumab, sequence (chain, as listed by the source, chain 2 of 2): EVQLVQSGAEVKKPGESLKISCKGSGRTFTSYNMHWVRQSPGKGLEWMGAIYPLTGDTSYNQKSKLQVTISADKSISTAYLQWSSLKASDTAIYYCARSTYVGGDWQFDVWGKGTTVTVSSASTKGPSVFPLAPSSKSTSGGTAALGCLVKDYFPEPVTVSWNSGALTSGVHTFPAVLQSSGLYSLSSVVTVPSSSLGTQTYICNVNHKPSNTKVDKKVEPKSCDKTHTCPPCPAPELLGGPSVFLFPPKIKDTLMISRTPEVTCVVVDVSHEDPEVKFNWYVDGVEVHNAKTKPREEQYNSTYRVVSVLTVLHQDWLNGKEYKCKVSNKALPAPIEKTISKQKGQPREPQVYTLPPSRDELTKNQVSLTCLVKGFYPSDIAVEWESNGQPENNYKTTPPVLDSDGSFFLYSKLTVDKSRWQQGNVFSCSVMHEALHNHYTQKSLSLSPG

B1: Peptide 22: DM1 conjugated cQFD (cQFD-DM1) (peptide)
peptide: CQFDLSTRRLRC
modifications: not checked
As to B1, the Kd was under 0.001 nM in [1]; 0.452 nM in test [2]; 3160 nM in test [3]; under 0.001 nM in test [4]; 1.88 nM in test [5]; under 0.001 nM in test [6]. In addition, the Kd in test [7] was under 0.001 nM; in test [8], under 0.001 nM; in [9], 2.62 nM; in test [10], 5.23 nM; in test [11] it was under 0.001 nM; in test [12], 2.69 nM. In [13], this molecule gave a Kd of 1.63 nM.
